Laboratory results reported in publication PMC3520743, “Bacillus cereus Fnr binds a [4Fe-4S] cluster and forms a ternary complex with ResD and PlcR” (BMC Microbiology, 2012).

Target: the molecule itself
Assay: SEC + other: SDS-PAGE under non-reducing conditions; analytical gel filtration chromatography and SDS-PAGE without DTT or beta-mercaptoethanol; apparent molecular mass ca. 60,000; dimer

B1: Bacillus cereus Fnr, recombinant tag-less apo-form (natural protein, Bacillus cereus F4430/73, UniProt A4GFD9 1-230, looked up)
chain: MANSMTLSQDLKELLASVEYKMQIKKGSFIFQEGMEATELYIIHSGKVQISKLSADGQELTLRICSAYDIIGELTLFTDNAKYLLNSKCLEDVEVGVIKREALEKELLQKPALVFEFMKWISEHLRRMQTKFRDLVLHGKKGALYSTLIRMTNSYGILKENGILIDLPLTNQELANFCATSRESVNRMLNELKKQGTISIHKGKITIHDLQFLKCEIACEDCSASVCSID
notes: also called apoFnr; tag-less Fnr; source: E. coli BL21 CodonPlus(DE3)-RIL (pET101fnr), aerobically grown, purified (DEAE-cellulose, hydroxyapatite, Superdex 200)
- stoichiometry N: 2
